In this assay the target is C8-αGFP chimera (anti-GFP CDRs grafted into the C8WT scaffold) fused to mCherry. Put plainly: SEC; gel filtration after IMAC on Superdex 75 10/30 in PBS, pH 7.4, 1 mM DTT.

B1: C8-αGFP chimera (anti-GFP CDRs grafted into the C8WT scaffold) fused to mCherry (VHH)
VHH: DVQLQASGGGLAQPGGSLRLSCAASGFPVNRYSMYWVRQAPGKGLEWVSSISSAGDRSSYYADSVKGRFTISRDNAKNTLYLQMNSLKLEDTALYFCAVNVGFEGQGTQVTVSS
With B1, the stoichiometry N was 2.

For the origin of these results see paper PMC7911018.
